Reference: patent US20080279864A1

Target: N-type (CaV2.2) Ca2+ channel (α1B with β2a and α2δ) in HEK293 cells (human; rat), Q00975
Experiment: cell-based or functional assay

Chain of N-type (CaV2.2) Ca2+ channel (α1B with β2a and α2δ) in HEK293 cells (human; rat), Q00975 (P54290 25-1091, stated change not applied, chain 3 of 2, other chains not shown): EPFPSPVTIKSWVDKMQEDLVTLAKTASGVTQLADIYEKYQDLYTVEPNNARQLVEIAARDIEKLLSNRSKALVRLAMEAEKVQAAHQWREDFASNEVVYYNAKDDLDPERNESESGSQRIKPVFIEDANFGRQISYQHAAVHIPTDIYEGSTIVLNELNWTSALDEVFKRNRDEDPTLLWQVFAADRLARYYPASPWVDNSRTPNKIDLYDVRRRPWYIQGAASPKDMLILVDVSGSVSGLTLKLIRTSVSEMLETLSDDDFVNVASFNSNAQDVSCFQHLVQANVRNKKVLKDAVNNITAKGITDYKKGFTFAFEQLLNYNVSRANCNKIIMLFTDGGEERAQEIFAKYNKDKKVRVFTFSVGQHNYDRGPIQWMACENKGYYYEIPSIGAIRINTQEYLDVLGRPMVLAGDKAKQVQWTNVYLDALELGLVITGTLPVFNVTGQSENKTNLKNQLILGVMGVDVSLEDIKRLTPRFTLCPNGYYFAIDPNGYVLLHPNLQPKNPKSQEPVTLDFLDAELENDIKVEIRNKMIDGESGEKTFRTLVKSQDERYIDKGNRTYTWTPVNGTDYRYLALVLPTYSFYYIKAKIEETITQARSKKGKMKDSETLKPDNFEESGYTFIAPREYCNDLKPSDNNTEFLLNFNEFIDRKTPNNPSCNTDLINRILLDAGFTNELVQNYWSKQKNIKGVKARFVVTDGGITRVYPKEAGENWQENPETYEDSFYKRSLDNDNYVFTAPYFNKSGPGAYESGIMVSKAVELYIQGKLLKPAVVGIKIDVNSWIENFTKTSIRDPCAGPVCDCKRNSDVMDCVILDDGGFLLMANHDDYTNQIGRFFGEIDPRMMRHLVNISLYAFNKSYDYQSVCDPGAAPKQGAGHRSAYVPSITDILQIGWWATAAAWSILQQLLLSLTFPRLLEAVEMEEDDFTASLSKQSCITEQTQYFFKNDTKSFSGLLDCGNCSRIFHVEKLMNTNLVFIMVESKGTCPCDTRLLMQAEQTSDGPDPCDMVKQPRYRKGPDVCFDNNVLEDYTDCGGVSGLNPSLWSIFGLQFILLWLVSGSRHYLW

B1: free NTB peptide (residues 1-95, without CFP fusion) (peptide)
peptide: MVRFGDELGGRYGGPGGGERARGGGAGGAGGPGPGGLQPGQRVLYKQSIAQRARTMALYNPIPVKQNCFTVNRSLFVFSEDNVVRKYAKRITEWP
DF, degree of prepulse facilitation, free NTB with Gβγ: 4 | conversion to constitutively reluctant channels, free NTB with Gβγ: 75%
